Data from patent US12173052B2.

Tests used:
[1] = biological target: V5 variants (YU-2 gp120, residues 458gp120 and 459gp120)
[2] = biological target: loop D variants (YU-2 gp120, residues 279gp120 and 280gp120)

For 45-46m7 (45-46m2+HC W47V) (antibody), the IC50, in vitro pseudovirus neutralization [1] was under 0.01 µg/mL and the IC50, in vitro pseudovirus neutralization [2] was over 0.1 µg/mL.

NIH45-46^G54W(HC)S28Y(LC) (antibody) gave an IC50, in vitro pseudovirus neutralization [1] of under 0.01 µg/mL and an IC50, in vitro pseudovirus neutralization [2] of over 0.1 µg/mL.
